Legend:
[1] = tested on: Articular cartilage explants from calf carpal joints; test: Articular cartilage assay (proteoglycan synthesis, sulfate incorporation); type: cell-based; conditions: 100 ng/ml, calf articular cartilage explants
Experimental: The effect of BMP-9 on articular cartilage proteoglycan and DNA synthesis is assayed to determine if BMP-9 is involved in the regulation of metabolism of differentiated articular cartilage.
Articular cartilage explants from calf carpal joints are maintained in DMEM with 50 μg/ml ascorbate, 4 mM glutamine and antibiotics for 3 days. Cytokines (rhBMP-2, rhBMP-4, rhBMP-6 and rhBMP-9, IGF-1, bFGF (1-1000 ng/ml), and TGFβ (1-100 ng/ml)) are added to the medium and culture is continued for 3 more days. Medium is changed daily. Twenty-four hours prior to harvest, explants are pulsed with 50 μCi/ml ^35 SO4 or 25 μCi/ml ^3 H-thymidine. Explants are solubilized and separation of free isotope is performed by gel chromatography. Total DNA of each explant is measured by a spectrophotometric assay.

[2] = tested on: BMP-9 receptors expressed on HepG2 cells; test: 125I-BMP-9 binding to HepG2 cells; conditions: HepG2 cells, 125I-BMP-9 and 250-fold excess of unlabeled ligand
Experimental: BMP-9 responsiveness in parenchymal liver cells is tested by screening four liver cell lines for their ability to bind iodinated, CHO-derived BMP-9. […] Specific binding of BMP-9 to HepG2 cells is carried out by incubating HepG2 cells grown to confluence in Dulbecco's Modified Eagle's Medium (DME) containing 10% heat-inactivated fetal calf serum (FCS) on gelatinized 6 well plates with 2 ng/ml ^125 I-BMP-9 and increasing concentrations of unlabelled BMP-9 in binding buffer (136.9 mM NaCl, 5.37 mM KCl, 1.26 mM CaCl2, 0.64 mM MgSO4, 0.34 mM Na2 HPO4, 0.44 mM KH2 PO4, 0.49 mM MgCl2, 25 mM HEPES and 0.5% BSA, pH 7.4) for 20 hours at 4° C. to achieve binding equilibrium. This incubation follows a one hour preincubation at 37° C. in binding buffer alone. For crosslinking experiments, the cells were incubated with 500 μM disuccinimidyl suberate for 20 minutes at […] following binding. Cell extracts were analyzed on SDS-PAGE. […] To test the binding specificity of the receptors for BMP-9, HepG2 cells were incubated with ^125 I-BMP-9 and a 250-fold excess of different unlabeled ligands.

Molecule	proteoglycan synthesis [1]	crossreactivity of BMP-9 receptors with unlabeled ligand [2]
BMP-4: BMP protein, cytokine in cartilage assay and competing ligand (protein) SPKHHSQRARKKNKNCRRHSLYVDFSDVGWNDWIVAPPGYQAFYCHGDCPFPLADHLNSTNHAIVQTLVNSVNSSIPKACCVPTELSAISMLYLDEYDKVVLKNYQEMVVEGCGCR	significantly more active in stimulating proteoglycan synthesis	limited crossreactivity
BMP-12: BMP protein used as unlabeled competing ligand (protein, UniProt Q7Z4P5 322-450, looked up) Growth/differentiation factor …: TALAGTRTAQGSGGGAGRGHGRRGRSRCSRKPLHVDFKELGWDDWIIAPLDYEAYHCEGLCDFPLRSHLEPTNHAIIQTLLNSMAPDAAPASCCVPARLSPISILYIDAANNVVYKQYEDMVVEACGCR	–	no crossreactivity
BMP-5: BMP protein used as unlabeled competing ligand (protein) AANKRKNQNRNKSSSHQDSSRMSSVGDYNTSEQKQACKKHELYVSFRDLGWQDWIIAPEGYAAFYCDGECSFPLNAHMNATNHAIVQTLVHLMFPDHVPKPCCAPTKLNAISVLYFDDSSNVILKKYRNMVVRSCGCH	–	no crossreactivity
TGF-β2: transforming growth factor β2 (protein) ALDAAYCFRNVQDNCCLRPLYIDFKRDLGWKWIHEPKGYNANFCAGACPYLWSSDTQHSRVLSLYNTINPEASASPCCVSQDLEPLTILYYIGKTPKIEQLSNMIVKSCKCS	–	no crossreactivity
BMP-3: BMP protein used as unlabeled competing ligand (protein) QWIEPRNCARRYLKVDFADIGWSEWIISPKSFDAYYCSGACQFPMPKSLKPSNHATIQSIVRAVGVVPGIPEPCCVPEKMSSLSILFFDENKNVVLKVYPNMTVESCACR	–	no crossreactivity
BMP-7: BMP protein used as unlabeled competing ligand (protein) STGSKQRSQNRSKTPKNQEALRMANVAENSSSDQRQACKKHELYVSFRDLGWQDWIIAPEGYAAYYCEGECAFPLNSYMNATNHAIVQTLVHFINPETVPKPCCAPTQLNAISVLYFDDSSNVILKKYRNMVVRACGCH	–	no crossreactivity
BMP-6: BMP protein, cytokine in cartilage assay and competing ligand (protein) SASSRRRQQSRNRSTQSQDVARVSSASDYNSSELKTACRKHELYVSFQDLGWQDWIIAPKGYAANYCDGECSFPLNAHMNATNHAIVQTLVHLMNPEYVPKPCCAPTKLNAISVLYFDDNSNVILKKYRNMVVRACGCH	significantly more active in stimulating proteoglycan synthesis	no crossreactivity
